Reference: US20080044360A1 (COLLAGEN MEDICAL, published 2008)
Bridge positions count the residues as written; N and C are the ends. Square brackets hold non-standard residues; d marks the D form. Primed or numbered codes have the meaning given here. Ends that are not written are not given here. Glu‑DTPA‑Gd = N-terminal Glu-DTPA-Gd chelate (gadolinium DTPA complex on glutamic acid); Glu‑DTPA‑Gd″ = N-terminal chelate: Glu-DTPA-Gd (glutamic acid–DTPA gadolinium chelate); Glu‑DTPA‑Gd(3) = N-terminal gadolinium chelate Glu-DTPA-Gd; PEG(2O) = not defined here

How the values were obtained:
[1] = molecular target: T1, human collagen type I, acid soluble, extracted from placenta (Sigma C7774) (human, UniProt P02452 162-1218; P08123 80-1119); assay: dried collagen assay
T1 construct: tissue extract, gelled and dried in wells; also called dried human collagen; h-Collagen
T1 sequence (P02452 162-1218 limits assumed, chain 1 of 2): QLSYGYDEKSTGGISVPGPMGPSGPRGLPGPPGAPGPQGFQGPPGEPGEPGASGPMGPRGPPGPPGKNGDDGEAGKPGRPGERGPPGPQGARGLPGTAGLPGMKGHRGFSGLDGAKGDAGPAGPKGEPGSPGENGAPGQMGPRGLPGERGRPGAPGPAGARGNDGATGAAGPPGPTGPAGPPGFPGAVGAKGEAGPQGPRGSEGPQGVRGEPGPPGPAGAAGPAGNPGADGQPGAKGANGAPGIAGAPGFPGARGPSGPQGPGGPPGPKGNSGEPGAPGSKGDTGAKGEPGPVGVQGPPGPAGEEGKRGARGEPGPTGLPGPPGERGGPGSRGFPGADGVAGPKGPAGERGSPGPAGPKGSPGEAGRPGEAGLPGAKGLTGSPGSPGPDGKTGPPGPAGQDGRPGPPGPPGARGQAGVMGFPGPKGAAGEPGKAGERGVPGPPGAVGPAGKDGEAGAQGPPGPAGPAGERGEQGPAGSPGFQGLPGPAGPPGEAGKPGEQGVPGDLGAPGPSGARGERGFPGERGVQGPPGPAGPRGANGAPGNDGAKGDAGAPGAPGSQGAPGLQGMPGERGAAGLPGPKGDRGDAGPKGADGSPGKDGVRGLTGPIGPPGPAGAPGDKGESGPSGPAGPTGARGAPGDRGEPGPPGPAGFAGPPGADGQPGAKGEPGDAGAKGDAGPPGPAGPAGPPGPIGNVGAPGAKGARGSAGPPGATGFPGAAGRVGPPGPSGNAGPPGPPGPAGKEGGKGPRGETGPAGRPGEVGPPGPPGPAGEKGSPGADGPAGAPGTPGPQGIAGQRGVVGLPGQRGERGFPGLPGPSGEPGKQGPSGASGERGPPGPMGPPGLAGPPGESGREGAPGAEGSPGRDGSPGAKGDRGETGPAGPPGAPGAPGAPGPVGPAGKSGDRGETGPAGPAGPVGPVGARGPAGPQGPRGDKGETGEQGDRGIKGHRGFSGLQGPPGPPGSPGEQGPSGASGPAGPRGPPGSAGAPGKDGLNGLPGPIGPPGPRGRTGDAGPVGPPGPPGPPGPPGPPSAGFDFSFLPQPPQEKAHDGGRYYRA
T1 sequence (P08123 80-1119 limits assumed, chain 2 of 2): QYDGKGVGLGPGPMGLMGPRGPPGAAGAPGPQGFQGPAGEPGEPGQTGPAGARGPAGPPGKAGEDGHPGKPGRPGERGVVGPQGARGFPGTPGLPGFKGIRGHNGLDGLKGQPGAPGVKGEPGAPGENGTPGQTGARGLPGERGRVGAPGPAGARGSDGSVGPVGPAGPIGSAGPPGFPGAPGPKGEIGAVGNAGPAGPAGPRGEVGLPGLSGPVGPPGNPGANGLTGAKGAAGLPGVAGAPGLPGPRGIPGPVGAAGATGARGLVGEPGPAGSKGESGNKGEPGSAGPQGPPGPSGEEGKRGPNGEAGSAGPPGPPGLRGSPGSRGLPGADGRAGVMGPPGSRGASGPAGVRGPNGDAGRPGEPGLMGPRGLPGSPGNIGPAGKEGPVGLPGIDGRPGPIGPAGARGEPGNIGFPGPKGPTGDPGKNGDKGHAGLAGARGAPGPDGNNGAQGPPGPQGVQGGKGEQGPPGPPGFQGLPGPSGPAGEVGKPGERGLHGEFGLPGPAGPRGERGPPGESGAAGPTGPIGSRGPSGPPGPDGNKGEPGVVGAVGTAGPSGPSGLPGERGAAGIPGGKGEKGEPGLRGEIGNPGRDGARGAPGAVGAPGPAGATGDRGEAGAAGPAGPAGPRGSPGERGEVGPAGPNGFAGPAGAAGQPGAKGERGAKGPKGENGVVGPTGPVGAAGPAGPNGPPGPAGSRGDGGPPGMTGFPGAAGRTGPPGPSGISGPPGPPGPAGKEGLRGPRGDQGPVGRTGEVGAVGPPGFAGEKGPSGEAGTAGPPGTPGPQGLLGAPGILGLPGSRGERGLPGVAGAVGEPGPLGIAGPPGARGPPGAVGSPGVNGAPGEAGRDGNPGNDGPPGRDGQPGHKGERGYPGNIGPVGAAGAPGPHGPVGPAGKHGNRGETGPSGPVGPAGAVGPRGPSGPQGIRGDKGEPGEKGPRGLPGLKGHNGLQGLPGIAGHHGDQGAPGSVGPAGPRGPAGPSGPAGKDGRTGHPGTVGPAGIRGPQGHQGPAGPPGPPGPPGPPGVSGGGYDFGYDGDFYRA
Procedure: (§1) An additional 90 μL is reserved in a HPLC glass vial as a measure of the total concentration.

[2] = molecular target: T2, rat collagen, acid soluble, type I, rat tail (Upstate 08-115) (rat, UniProt P02454 152-1207; P02466 86-1125); assay: dried collagen assay
T2 construct: tissue extract, gelled and dried in wells; also called dried rat collagen
T2 sequence (P02454 152-1207, chain 1 of 2): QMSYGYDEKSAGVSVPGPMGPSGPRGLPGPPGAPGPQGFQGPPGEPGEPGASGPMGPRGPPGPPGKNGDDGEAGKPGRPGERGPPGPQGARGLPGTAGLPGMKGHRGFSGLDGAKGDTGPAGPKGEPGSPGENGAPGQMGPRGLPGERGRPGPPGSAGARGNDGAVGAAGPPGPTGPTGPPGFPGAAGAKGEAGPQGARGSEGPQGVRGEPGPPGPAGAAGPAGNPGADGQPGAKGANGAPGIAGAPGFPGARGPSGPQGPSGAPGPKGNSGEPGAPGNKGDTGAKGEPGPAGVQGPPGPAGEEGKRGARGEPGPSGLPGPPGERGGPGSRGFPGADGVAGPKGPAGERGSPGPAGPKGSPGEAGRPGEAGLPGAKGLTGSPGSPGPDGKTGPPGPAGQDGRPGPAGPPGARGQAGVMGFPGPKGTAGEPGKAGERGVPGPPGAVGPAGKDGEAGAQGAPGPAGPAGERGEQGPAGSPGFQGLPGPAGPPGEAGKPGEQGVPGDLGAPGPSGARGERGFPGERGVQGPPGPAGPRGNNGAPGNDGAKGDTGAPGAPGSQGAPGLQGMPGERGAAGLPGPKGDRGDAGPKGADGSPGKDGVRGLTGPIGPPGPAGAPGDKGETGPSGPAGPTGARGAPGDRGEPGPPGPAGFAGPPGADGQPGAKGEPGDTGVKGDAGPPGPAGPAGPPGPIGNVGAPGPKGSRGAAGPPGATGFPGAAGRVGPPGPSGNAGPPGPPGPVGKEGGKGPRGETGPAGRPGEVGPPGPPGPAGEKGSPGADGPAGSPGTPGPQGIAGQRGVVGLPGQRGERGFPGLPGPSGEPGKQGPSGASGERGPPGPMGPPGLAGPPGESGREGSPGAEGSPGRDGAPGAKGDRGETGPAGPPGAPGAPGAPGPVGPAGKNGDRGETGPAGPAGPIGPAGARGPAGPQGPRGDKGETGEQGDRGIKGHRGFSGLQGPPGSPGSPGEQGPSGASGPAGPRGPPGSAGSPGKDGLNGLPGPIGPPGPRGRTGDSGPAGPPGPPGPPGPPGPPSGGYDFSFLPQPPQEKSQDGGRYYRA
T2 sequence (P02466 86-1125, chain 2 of 2): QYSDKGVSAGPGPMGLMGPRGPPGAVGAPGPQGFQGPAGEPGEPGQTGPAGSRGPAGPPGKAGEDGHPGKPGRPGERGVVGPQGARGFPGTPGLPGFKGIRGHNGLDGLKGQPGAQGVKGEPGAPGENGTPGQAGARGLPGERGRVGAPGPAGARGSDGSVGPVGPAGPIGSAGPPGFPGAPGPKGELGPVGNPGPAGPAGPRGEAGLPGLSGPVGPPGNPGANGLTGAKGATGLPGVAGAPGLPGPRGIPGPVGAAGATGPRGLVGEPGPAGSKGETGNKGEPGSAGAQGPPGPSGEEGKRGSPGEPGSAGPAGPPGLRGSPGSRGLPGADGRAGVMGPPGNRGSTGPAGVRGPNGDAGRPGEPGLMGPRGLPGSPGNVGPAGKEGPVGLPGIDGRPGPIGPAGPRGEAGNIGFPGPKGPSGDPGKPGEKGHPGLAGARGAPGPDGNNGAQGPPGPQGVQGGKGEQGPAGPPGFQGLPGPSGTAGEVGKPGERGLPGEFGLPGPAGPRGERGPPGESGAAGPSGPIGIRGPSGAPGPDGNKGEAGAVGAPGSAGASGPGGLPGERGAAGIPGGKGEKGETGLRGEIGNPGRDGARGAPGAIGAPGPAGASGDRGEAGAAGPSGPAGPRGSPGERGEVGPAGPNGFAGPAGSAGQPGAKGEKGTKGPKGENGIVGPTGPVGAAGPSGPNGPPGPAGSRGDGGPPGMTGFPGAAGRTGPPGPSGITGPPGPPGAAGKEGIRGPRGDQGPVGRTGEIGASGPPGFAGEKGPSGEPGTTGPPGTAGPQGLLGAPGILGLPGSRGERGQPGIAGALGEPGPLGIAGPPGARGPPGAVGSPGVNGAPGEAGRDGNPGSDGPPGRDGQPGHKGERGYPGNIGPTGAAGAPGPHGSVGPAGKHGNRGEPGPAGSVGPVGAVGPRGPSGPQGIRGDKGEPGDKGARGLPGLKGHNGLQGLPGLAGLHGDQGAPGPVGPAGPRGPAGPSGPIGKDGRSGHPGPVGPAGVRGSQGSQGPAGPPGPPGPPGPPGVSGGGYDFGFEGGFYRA
Procedure: as §1

[3] = molecular target: T1, human collagen type I, acid soluble, …; assay: % binding to collagen I
[4] = molecular target: T2, rat collagen, acid soluble, type I, rat …; assay: % binding to collagen I

Binder	% bound [1] [%]	% bound [2] [%]	% bound [3] [%]	% bound [4] [%]
YHAC[dY]QAGCWIW (disulfide 4-9 (inferred); not fully specified (C-terminus); printed as YHACyQAGCWIW, cyclic, disulfide; also called YHACyQAGCWIW) [SEQ ID NO 156]	38	48	–	–
{Glu‑DTPA‑Gd}-WWTCHMTWSGQWDSCKWH-NH2 (disulfide 4-15 (inferred)) [Compound ID 1020]	–	–	60	34
{Glu‑DTPA‑Gd}-GQWHCTTRFPHHYCLYG (disulfide 5-14 (inferred); not fully specified (C-terminus), N-terminal G linker) [Compound ID 1022]	–	–	36	38
YH[dA]CYQAGCWIW (disulfide 4-9 (inferred); not fully specified (C-terminus); printed as YHaCYQAGCWIW, cyclic, disulfide) [SEQ ID NO 154]	24	21	–	–
QWTCSGDEY[dT]WHCNYE (disulfide 4-13 (inferred); not fully specified (N-terminus); printed as QWTCSGDEYtWHCNYE, cyclic, disulfide) [SEQ ID NO 172]	9	8	–	–
QWTCSGDEYTWHCNY[dE] (disulfide 4-13 (inferred); not fully specified (N-terminus); printed as QWTCSGDEYTWHCNYe, cyclic, disulfide) [SEQ ID NO 178]	90	87	–	–
DWTCS[dL]DEYTWHCNYE (disulfide 4-13 (inferred), cyclic, disulfide) [SEQ ID NO 183]	73	63	–	–
QWTCSGDEYTWHCN[dY]E (disulfide 4-13 (inferred); not fully specified (N-terminus); printed as QWTCSGDEYTWHCNyE, cyclic, disulfide) [SEQ ID NO 177]	30	27	–	–
DWTCS[dS]DEYTWHCNYE (disulfide 4-13 (inferred), cyclic, disulfide) [SEQ ID NO 180]	81	72	–	–
DWTCS[dA]DEYTWHCNYE (disulfide 4-13 (inferred), cyclic, disulfide) [SEQ ID NO 179]	81	75	–	–
DWTCS[dR]DEYTWHCNYE (disulfide 4-13 (inferred), cyclic, disulfide) [SEQ ID NO 181]	87	86	–	–
Y[dH]ACYQAGCWIW (disulfide 4-9 (inferred); not fully specified (C-terminus); printed as YhACYQAGCWIW, cyclic, disulfide) [SEQ ID NO 153]	0	0	–	–
YHACYQAGC[dW]IW (disulfide 4-9 (inferred); not fully specified (C-terminus); printed as YHACYQAGCwIW, cyclic, disulfide) [SEQ ID NO 160]	20	12	–	–
WWGCRQGTGEHWSHCMWF (disulfide 4-15 (inferred); not fully specified (N-terminus, C-terminus); also: Gd chelated by DTPA at both ends) [SEQ ID NO 195]	–	–	16	9
WWTCHMTWSGQWDSCKWH-NH2 (disulfide 4-15 (inferred); not fully specified (N-terminus); also: Gd chelated by DTPA) [SEQ ID NO 196]	–	–	60	34
YHACYQ[dA]GCWIW (disulfide 4-9 (inferred); not fully specified (C-terminus); printed as YHACYQaGCWIW, cyclic, disulfide; also called YHACYQaGCWIW) [SEQ ID NO 158]	56	66	–	–
{Glu‑DTPA‑Gd″-PEG(2O)}-GQWTCSGDEYTWHCNY[dE]-NH2 (disulfide 5-14 (inferred); reading uncertain, linker -PEG(2O)-G- on the N-terminus) [Compound ID 1026]	–	–	28	–
{Glu‑DTPA‑Gd″}-GGDWTCVGDHKTWKCNFH-NH2 (disulfide 6-15 (inferred), N-terminal G-G linker) [Compound ID 1023]	–	–	14	12
YHACYQAGCWI[dW] (disulfide 4-9 (inferred); not fully specified (C-terminus); printed as YHACYQAGCWIw, cyclic, disulfide) [SEQ ID NO 162]	18	14	–	–
{Glu‑DTPA‑Gd}-GQWTCSGDEYTWHCNYE (disulfide 5-14 (inferred); not fully specified (C-terminus), N-terminal G linker) [Compound ID 1021]	–	–	48	13
YHACY[dQ]AGCWIW (disulfide 4-9 (inferred); not fully specified (C-terminus); printed as YHACYqAGCWIW, cyclic, disulfide; also called YHACYqAGCWIW) [SEQ ID NO 157]	37	35	–	–
{Glu‑DTPA‑Gd(3)}-PPQWHCTTRFPHHYCLYG-NH2 (disulfide 6-15 (inferred), N-terminal P-P linker) [Compound ID 1024]	–	–	70	55
YHACYQAGCW[dI]W (disulfide 4-9 (inferred); not fully specified (C-terminus); printed as YHACYQAGCWiW, cyclic, disulfide) [SEQ ID NO 161]	8	10	–	–
YHA[dC]YQAGCWIW (disulfide 4-9 (inferred); not fully specified (C-terminus); printed as YHAcYQAGCWIW, cyclic, disulfide) [SEQ ID NO 155]	15	11	–	–
